Reference: PMC8786824 (Scientific Reports, 2022)

Molecular target: MERS-CoV RBD (amino acids 367 to 588) of the spike glycoprotein (MERS-CoV, UniProt K9N5Q8)
Assay: crystal structure
Conditions: both partners purified

MERS-CoV RBD (amino acids 367 to 588) of the spike glycoprotein, sequence (K9N5Q8 367-588): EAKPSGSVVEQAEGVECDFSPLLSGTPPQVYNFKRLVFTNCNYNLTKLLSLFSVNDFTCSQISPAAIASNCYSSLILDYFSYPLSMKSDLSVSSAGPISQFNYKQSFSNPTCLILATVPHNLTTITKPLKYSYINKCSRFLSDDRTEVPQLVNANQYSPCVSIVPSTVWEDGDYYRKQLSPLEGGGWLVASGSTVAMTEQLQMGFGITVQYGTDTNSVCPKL

B1: KNIH90-F1 antigen-binding fragment (Fab) (Fab, V domains shown)
VH: QVQLVQSGAEVKRPGSSVKVSCKTSGGTFNNNAINWVRQAPGQGLEWMGGIIPFFGIAKYAQKFQGRVTITADESTSTAYMELSSLRSEDTAVYYCARDLPRESSYGSGSYYTHYYAMDVWGQGTTVTVSS
VL: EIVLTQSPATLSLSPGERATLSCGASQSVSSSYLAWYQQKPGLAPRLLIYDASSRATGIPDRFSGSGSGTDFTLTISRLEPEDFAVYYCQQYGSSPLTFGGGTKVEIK
notes: also called KNIH90-F1 Fab; nAb KNIH90-F1
- binding result: binds
